T1: SIP2 D1 (Plasmodium falciparum, UniProt C6KSN9 177-235)
T1 sequence: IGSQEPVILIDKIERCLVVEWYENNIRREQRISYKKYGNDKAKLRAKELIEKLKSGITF

T2: HDP1 homeodomain-like (Plasmodium falciparum, UniProt Q8IKH4 2990-3078)
T2 sequence: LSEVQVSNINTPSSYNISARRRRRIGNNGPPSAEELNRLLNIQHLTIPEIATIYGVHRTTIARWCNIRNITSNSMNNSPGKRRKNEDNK

B1: GTGCAC_site10721 (dsDNA)
DNA 1: ATATTATATCTAATCGTGCACAACTGTACATTTGTC
DNA 2: GACAAATGTACAGTTGTGCACGATTAGATATAATAT
B2: GTGCAC_site10686 (dsDNA)
DNA 1: TATCCATTTCTTTATGTGCACATTAAATATATTTGT
DNA 2: ACAAATATATTTAATGTGCACATAAAGAAATGGATA
B3: GTGCAC_site10622 (dsDNA)
DNA 1: TATTATTCAAAATTTGTGCACAAAATTAAAGGAACA
DNA 2: TGTTCCTTTAATTTTGTGCACAAATTTTGAATAATA
B4: GTGCAC_site10117 (dsDNA)
DNA 1: AATAACTATATATGTGTGCACAAAAATTTGACATAA
DNA 2: TTATGTCAAATTTTTGTGCACACATATATAGTTATT
B5: GTGCAC_site9776 (dsDNA)
DNA 1: TTTATATATTTTGTCGTGCACATTTGGAAAATTACA
DNA 2: TGTAATTTTCCAAATGTGCACGACAAAATATATAAA
B6: GTGCAC_site9953 (dsDNA)
DNA 1: ATATATCTTTATATAGTGCATTAAATATGTTGTAAT
DNA 2: ATTACAACATATTTAATGCACTATATAAAGATATAT
B7: GTGCAC_site10773 (dsDNA)
DNA 1: TATATATATATAATTGTGCACATAATTTTAAACCAA
DNA 2: TTGGTTTAAAATTATGTGCACAATTATATATATATA
B8: GTGCAC_site10365 (dsDNA)
DNA 1: TTTCAATTTATCAGTGTGCACAAAAATAAAATAAAA
DNA 2: TTTTATTTTATTTTTGTGCACACTGATAAATTGAAA
B9: GTGCAC_site9510 (dsDNA)
DNA 1: TGTTTATTTATTTGTGTGCACTCAGATTATATTATA
DNA 2: TATAATATAATCTGAGTGCACACAAATAAATAAACA
B10: GTGCAC_negctrl_site236 (dsDNA)
DNA 1: TGTTAAAAGGTTAAATTAAAATAACCTCCGGAAATT
DNA 2: AATTTCCGGAGGTTATTTTAATTTAACCTTTTAACA
B11: GTGCAC_negctrl_site213 (dsDNA)
DNA 1: TTTAATCAATGATTTAATGAAAAAAGCAAAAAAAAA
DNA 2: TTTTTTTTTGCTTTTTTCATTAAATCATTGATTAAA
B12: GTGCAC_negctrl_site10 (dsDNA)
DNA 1: TGCCATATATATATTAAATACATAATAATGAGCCTA
DNA 2: TAGGCTCATTATTATGTATTTAATATATATATGGCA
B13: GTGCAC_negctrl_site362 (dsDNA)
DNA 1: TATTATATCTTATATGTATATTCCCACAAATTATAT
DNA 2: ATATAATTTGTGGGAATATACATATAAGATATAATA
B14: GTGCAC_negctrl_site507 (dsDNA)
DNA 1: ATGTTGTTCATAAATATATTATTTTTAAATGTACAA
DNA 2: TTGTACATTTAAAAATAATATATTTATGAACAACAT
B15: GTGCAC_negctrl_site151 (dsDNA)
DNA 1: TTTGTTCTATGGAGTTTAAAATGTAATATATATTAA
DNA 2: TTAATATATATTACATTTTAAACTCCATAGAACAAA
B16: GTGCAC_negctrl_site358 (dsDNA)
DNA 1: TACTGTATTATAATTATGATTGACGAAATTAAAAAT
DNA 2: ATTTTTAATTTCGTCAATCATAATTATAATACAGTA
B17: GTGCAC_negctrl_site542 (dsDNA)
DNA 1: AAAATCCAGTTTTCAAAATTGAACAAAAAAAAAATA
DNA 2: TATTTTTTTTTTGTTCAATTTTGAAAACTGGATTTT
B18: GTGCAC_negctrl_site710 (dsDNA)
DNA 1: AATATATTTTAGAGTTTTATATATTTTATGCATATA
DNA 2: TATATGCATAAAATATATAAAACTCTAAAATATATT
B19: GTGCAC_negctrl_site681 (dsDNA)
DNA 1: AAAGGTAAATGTAAATAAATAAATAATAAATATATA
DNA 2: TATATATTTATTATTTATTTATTTACATTTACCTTT
B20: GTGCAC_negctrl_site596 (dsDNA)
DNA 1: TTTTTTATTTTATTTTATTTTTATTTTTTTTTTTTT
DNA 2: AAAAAAAAAAAAATAAAAATAAAATAAAATAAAAAA
B21: GTGCAC_negctrl_site354 (dsDNA)
DNA 1: ATAAATTGAAGTAAATTTGACCTTTTTTTTTTTTTT
DNA 2: AAAAAAAAAAAAAAGGTCAAATTTACTTCAATTTAT
B22: GTGCAC_negctrl_site622 (dsDNA)
DNA 1: TTTTGAATATATTAAATAAATTAAAAATCTACAAAC
DNA 2: GTTTGTAGATTTTTAATTTATTTAATATATTCAAAA
B23: GTGCAC_negctrl_site550 (dsDNA)
DNA 1: AAAAAAAATAAAGAGAAAAAAAAAAGAAAATTATAT
DNA 2: ATATAATTTTCTTTTTTTTTTCTCTTTATTTTTTTT
B24: GTGCAC_negctrl_site551 (dsDNA)
DNA 1: AAAAGGAATATAATCATTCAAAAATATAATATATAT
DNA 2: ATATATATTATATTTTTGAATGATTATATTCCTTTT
B25: GTGCAC_negctrl_site275 (dsDNA)
DNA 1: ATATTTTATCATGTTTAATATTTATGTGGACATAAA
DNA 2: TTTATGTCCACATAAATATTAAACATGATAAAATAT
B26: GTGCAC_negctrl_site532 (dsDNA)
DNA 1: AATAATTTTTAAATATAAACATTTTTTTTTTTTTTT
DNA 2: AAAAAAAAAAAAAAATGTTTATATTTAAAAATTATT
B27: GTGCAC_negctrl_site73 (dsDNA)
DNA 1: AGCACACAAAAAAAAAAAAAAAAAAAAAAAGGAATG
DNA 2: CATTCCTTTTTTTTTTTTTTTTTTTTTTTGTGTGCT
B28: GTGCAC_negctrl_site183 (dsDNA)
DNA 1: TGTATAGGTACAATAATTATAGAGTAATTGACATTA
DNA 2: TAATGTCAATTACTCTATAATTATTGTACCTATACA
B29: GTGCAC_negctrl_site352 (dsDNA)
DNA 1: TTTTTTTTTTTTTTTTTTTTCACATGTGTGGAAAAA
DNA 2: TTTTTCCACACATGTGAAAAAAAAAAAAAAAAAAAA
B30: GTGCAC_negctrl_site448 (dsDNA)
DNA 1: TCTTTTTAAATTACTATAATACATTCATAAATTATA
DNA 2: TATAATTTATGAATGTATTATAGTAATTTAAAAAGA
B31: GTGCAC_negctrl_site17 (dsDNA)
DNA 1: TTTTTTTTTTTTTTTTTTTTCTTCATTTAATTTATA
DNA 2: TATAAATTAAATGAAGAAAAAAAAAAAAAAAAAAAA
B32: GTGCAC_negctrl_site190 (dsDNA)
DNA 1: TAGTTACTTCTTATATAAAATATGTATATAAAAATA
DNA 2: TATTTTTATATACATATTTTATATAAGAAGTAACTA
B33: GTGCAC_negctrl_site655 (dsDNA)
DNA 1: TCTTTTAACAAATAATAAGCTAATTTATATTATTAT
DNA 2: ATAATAATATAAATTAGCTTATTATTTGTTAAAAGA
B34: GTGCAC_negctrl_site541 (dsDNA)
DNA 1: TCCCCCTTTTTTTGATTTTTATCTTAATTCTAAAAG
DNA 2: CTTTTAGAATTAAGATAAAAATCAAAAAAAGGGGGA
B35: GTGCAC_negctrl_site230 (dsDNA)
DNA 1: TGTTGTTATAAAAAAAAAAAAAAAAAAAAAAAAAAA
DNA 2: TTTTTTTTTTTTTTTTTTTTTTTTTTTATAACAACA
B36: GTGCAC_negctrl_site640 (dsDNA)
DNA 1: AGAAATATGTTGAAGCATTTATAATGTAGATATAAG
DNA 2: CTTATATCTACATTATAAATGCTTCAACATATTTCT
B37: GTGCAC_negctrl_site20 (dsDNA)
DNA 1: TAGTTCCTCAAAAATTTCCTTTGTCATTTTATTCAC
DNA 2: GTGAATAAAATGACAAAGGAAATTTTTGAGGAACTA
B38: GTGCAC_negctrl_site486 (dsDNA)
DNA 1: TATTTATTATGATACTCATATTATTCTATGATTAAA
DNA 2: TTTAATCATAGAATAATATGAGTATCATAATAAATA
B39: GTGCAC_negctrl_site465 (dsDNA)
DNA 1: AAAAAATGTAAATATAAACAACCAAAGGGGGTATAC
DNA 2: GTATACCCCCTTTGGTTGTTTATATTTACATTTTTT
B40: GTGCAC_negctrl_site549 (dsDNA)
DNA 1: TTTTTTATAGTACATTACCAAAAAAAAAAAAAAAAA
DNA 2: TTTTTTTTTTTTTTTTTGGTAATGTACTATAAAAAA
B41: GTGCAC_negctrl_site77 (dsDNA)
DNA 1: TATTAAAATATGTCAGTTCTTAAAAAGTTGATGAGT
DNA 2: ACTCATCAACTTTTTAAGAACTGACATATTTTAATA

Target: T1, SIP2 D1
Assay: gcPBM; about 25 ug protein; PBS, 1% milk, 0.2 mg/ml BSA, salmon testes DNA, 0.03% Triton X-100
Conditions: tags: N-terminal GST (pGEX-4T-1), kept; label: surface-attached array probe

Going from B1 to B2, the binding signal falls from 9.08 ln median PBM intensity, better of two orientations to 8.89 ln median PBM intensity, better of two orientations.

Going from B3 to B4, the binding signal rises from 8.92 ln median PBM intensity, better of two orientations to 9.72 ln median PBM intensity, better of two orientations.

First: B5
Second: B6
The binding signal of the first is higher: 9.81 ln median PBM intensity, better of two orientations for the first, 8.47 ln median PBM intensity, better of two orientations for the second.

Going from B7 to B8, the binding signal rises from 9.89 ln median PBM intensity, better of two orientations to 10.1 ln median PBM intensity, better of two orientations.

With B9 the binding signal was 10.1 ln median PBM intensity, better of two orientations.

Target: T2, HDP1 homeodomain-like
Assay: as above
Conditions: tags: N-terminal GST (pGEX-4T-1), kept; chain copies: 2; label: surface-attached array probe

First: B10
Second: B11
The binding signal of the first is lower: 6.21 ln median PBM intensity, better of two orientations for the first, 6.34 ln median PBM intensity, better of two orientations for the second.

Going from B12 to B13, the binding signal rises from 6.22 ln median PBM intensity, better of two orientations to 6.31 ln median PBM intensity, better of two orientations.

Compared with B1, B14 is lower in binding signal: 9.73 ln median PBM intensity, better of two orientations for the first, 6.37 ln median PBM intensity, better of two orientations for the second.

First: B15
Second: B16
The binding signal of the first is lower: 6.25 ln median PBM intensity, better of two orientations for the first, 6.33 ln median PBM intensity, better of two orientations for the second.

First: B2
Second: B17
The binding signal of the first is higher: 11.4 ln median PBM intensity, better of two orientations for the first, 6.19 ln median PBM intensity, better of two orientations for the second.

Compared with B18, B3 is higher in binding signal: 6.25 ln median PBM intensity, better of two orientations for the first, 11.1 ln median PBM intensity, better of two orientations for the second.

Going from B19 to B4, the binding signal rises from 6.27 ln median PBM intensity, better of two orientations to 11.2 ln median PBM intensity, better of two orientations.

Going from B20 to B21, the binding signal rises from 6.26 ln median PBM intensity, better of two orientations to 6.29 ln median PBM intensity, better of two orientations.

Going from B22 to B23, the binding signal falls from 6.24 ln median PBM intensity, better of two orientations to 6.22 ln median PBM intensity, better of two orientations.

Compared with B24, B25 is lower in binding signal: 6.36 ln median PBM intensity, better of two orientations for the first, 6.34 ln median PBM intensity, better of two orientations for the second.

Going from B26 to B27, the binding signal falls from 6.29 ln median PBM intensity, better of two orientations to 6.21 ln median PBM intensity, better of two orientations.

Going from B28 to B29, the binding signal rises from 6.21 ln median PBM intensity, better of two orientations to 6.23 ln median PBM intensity, better of two orientations.

Compared with B30, B31 is lower in binding signal: 6.3 ln median PBM intensity, better of two orientations for the first, 6.26 ln median PBM intensity, better of two orientations for the second.

Going from B5 to B32, the binding signal falls from 8.92 ln median PBM intensity, better of two orientations to 6.17 ln median PBM intensity, better of two orientations.

Compared with B6, B33 is lower in binding signal: 8.99 ln median PBM intensity, better of two orientations for the first, 6.28 ln median PBM intensity, better of two orientations for the second.

Going from B34 to B35, the binding signal falls from 6.28 ln median PBM intensity, better of two orientations to 6.26 ln median PBM intensity, better of two orientations.

First: B36
Second: B7
The binding signal of the first is lower: 6.35 ln median PBM intensity, better of two orientations for the first, 11.1 ln median PBM intensity, better of two orientations for the second.

Compared with B37, B38 is higher in binding signal: 6.25 ln median PBM intensity, better of two orientations for the first, 6.33 ln median PBM intensity, better of two orientations for the second.

Compared with B39, B40 is lower in binding signal: 6.37 ln median PBM intensity, better of two orientations for the first, 6.26 ln median PBM intensity, better of two orientations for the second.

Compared with B41, B8 is higher in binding signal: 6.19 ln median PBM intensity, better of two orientations for the first, 11.4 ln median PBM intensity, better of two orientations for the second.

With B9 the binding signal was 11.3 ln median PBM intensity, better of two orientations.
